Patent US20030100492A1, “Proteoglycans and pharmaceutical compositions comprising them” (published 2003)

Legend:
[1] = target: Soluble FGFR2-alkaline phosphatase fusion protein (FR2-AP) (human) (UniProt P05187); experiment: FGF on Syn4-Fc, FGFR-AP; alkaline phosphatase activity and cross-linking of the receptors to radio-labeled bFGF
[2] = target: Recombinant human FGF2 (human, UniProt P09038, 125I label in the FIG. 1 assay and in the FGFR2-AP direct binding assay); experiment: immunoprecipitation with anti-P710, incubation with 50 ng FGF2, FB-8 immunoblot

| fold less than with FGFR1 [1] [fold less] | fold more FGF2 bound than syndecan-4 from the CHO-KI parental cells [2] [fold] | Molecule |
| --- | --- | --- |
| 2 | – | Recombinant human FGF2 (from UniProt P09038) (ligand) |
| – | ~3 | Mouse syndecan-4 (full length) overexpressed in CHO-KI cells (other, heparan sulfate chains) ESIRETEVIDPQDLLEGRYFSGALPDDEDAGGSDDFELSGSGDLDDTEEPRPFPEVIEPLVPLDNHIPENAQPGIRVPSEPKELEENEVIPKRAPSDVGDDMSNKVSMSSTVQGSNIFERTEVLAALIVGGVVGILFAVFLILLLVYRMKKKDEGSYDLGKKPIYKKAPTNEFYA |
